# Reference: patent US20020188037A1, “Method and system for providing bioactive agent release coating” (priority 1999, published 2002)
# Test: Bioactive Agent Release Assay, dextran-TRITC under polymer topcoat on discs (Example 4)
# Assay type: physicochemical
# Settings: pEVA/pBMA topcoat coated at 48% relative humidity compared with 10% relative humidity; PBS, 37° C.; FIG. 2
# Method: Two solutions were prepared in order to provide a coating composition in the form of a two part system. The first solution was an aqueous solution containing the bioactive agent, dextran-TRITC, at a concentration of 15 mg/ml. […] The poly(n-butyl methacrylate) and poly(ethylene-co-vinylacetate) were purified by extraction with organic solvents to remove impurities, e.g., monomer residues. The polymers of the second solution were dissolved in tetrahydrofuran at a concentration of 10 mg/ml.
# Fifteen-millimeter diameter stainless steel discs with an overall thickness of two millimeters were fabricated with a nine-millimeter diameter flat pedestal. […] A surface treatment such as Parylene could be applied to the disc or the surface could be left untreated. The discs were weighed on a microbalance. The aqueous bioactive agent solution was applied to the pedestal surface of the discs with a pipette. The water evaporated from the discs and the discs were re-weighed on a microbalance to obtain the amount of the bioactive agent on the disc. The polymer coating solution containing poly(ethylene-co-vinylacetate) and poly(n-butyl methacrylate) was applied to the entire surface of the disc, covering the dextran. […]
# Except as otherwise provided herein, each coated disc was placed in an amber vial with 4 mls of PBS. […] The concentration of bioactive agent in each PBS sample was determined using UV spectroscopy. […]
substance,measurement,value
tetramethylrhodamine isothiocyanate-Dextran [dextran-TRITC],release rate of the bioactive agent from the composite coating,faster rate
